The values below are quoted from earlier work in paper PMC11083953.

The term Kd denotes the concentration at which binding is half-saturated.

The target in data set [1] is CD38 (Homo sapiens) (UniProt P28907).
The target in data set [2] is CD20 (Homo sapiens) (UniProt P11836).
Chain of CD20 (Homo sapiens) (P11836 whole entry): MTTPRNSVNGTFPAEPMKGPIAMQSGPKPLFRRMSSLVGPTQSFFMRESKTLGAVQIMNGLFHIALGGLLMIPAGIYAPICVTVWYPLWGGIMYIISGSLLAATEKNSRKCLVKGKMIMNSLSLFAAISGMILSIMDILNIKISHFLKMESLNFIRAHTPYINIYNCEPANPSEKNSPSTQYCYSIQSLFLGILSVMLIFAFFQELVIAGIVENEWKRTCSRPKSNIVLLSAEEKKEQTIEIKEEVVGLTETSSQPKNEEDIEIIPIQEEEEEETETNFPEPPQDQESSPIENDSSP

Regarding daratumumab, in data set [1], the Kd was 4.36 nM.
Regarding rituximab, in data set [2], the Kd was 8 nM.
